Literature values in paper PMC12493192.
Like-named read-outs stand apart in the source and are kept apart here.

Key:
GC-C (Homo sapiens) [1] = target: GC-C (Homo sapiens) (UniProt P25092)
GC-C (Homo sapiens) [2] = target: GC-C (Homo sapiens) (UniProt P25092); remark: listed apart in the source

UniProt P25092, sequence (P25092 24-430): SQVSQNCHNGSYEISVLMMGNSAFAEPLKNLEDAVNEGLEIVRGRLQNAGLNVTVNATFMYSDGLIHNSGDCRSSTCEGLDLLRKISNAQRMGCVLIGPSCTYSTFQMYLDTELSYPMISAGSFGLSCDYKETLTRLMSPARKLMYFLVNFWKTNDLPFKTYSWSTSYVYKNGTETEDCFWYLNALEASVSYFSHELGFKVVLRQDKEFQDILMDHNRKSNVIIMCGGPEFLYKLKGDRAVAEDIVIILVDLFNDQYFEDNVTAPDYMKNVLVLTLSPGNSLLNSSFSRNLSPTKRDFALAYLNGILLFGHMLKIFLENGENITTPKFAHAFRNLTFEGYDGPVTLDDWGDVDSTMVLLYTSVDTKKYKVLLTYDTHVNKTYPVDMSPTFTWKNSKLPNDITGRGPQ

| Substance | Kd (GC-C (Homo sapiens) [1]) [nM] | Kd (GC-C (Homo sapiens) [2]) [nM] |
| --- | --- | --- |
| uroguanylin (from UniProt Q16661) | 1 |  |
| guanylin (from UniProt Q02747) |  | 10 |
